B1: AP-4 complex accessory subunit RUSC1 (Homo sapiens), Q9BVN2 (parent)
chain: MLSPQRALLCNLNHIHLQHVSLGLHLSRRPELQEGPLSTPPPPGDTGGKESRGPCSGTLVDANSNSPAVPCRCCQEHGPGLENRQDPSQEEEGAASPSDPGCSSSLSSCSDLSPDESPVSVYLRDLPGDEDAHPQPSIIPLEQGSPLASAGPGTCSPDSFCCSPDSCSGASSSPDPGLDSNCNALTTCQDVPSPGLEEEDERAEQDLPTSELLEADDGKIDAGKTEPSWKINPIWKIDTEKTKAEWKTTENNNTGWKNNGNVNSSWKSEPEKFDSGWKTNTRITDSGSKTDAGKIDGGWRSDVSEEPVPHRTITSFHELAQKRKRGPGLPLVPQAKKDRSDWLIVFSPDTELPPSGSPGGSSAPPREVTTFKELRSRSRAPAPPVPPRDPPVGWALVPPRPPPPPVPPRRKKNRPGLQPIAEGQSEEGRAVSPAAGEEAPAAKEPGAQAGLEVRSSWSFAGVPGAQRLWMAEAQSGTGQLQEQKKGLLIAVSVSVDKIISHFGAARNLVQKAQLGDSRLSPDVGHLVLTTLCPALHALVADGLKPFRKDLITGQRRSSPWSVVEASVKPGSSTRSLGTLYSQVSRLAPLSSSRSRFHAFILGLLNTKQLELWFSSLQEDAGLLSLLYLPTGFFSLARGGCPSLSTELLLLLQPLSVLTFHLDLLFEHHHHLPLGPPQAPAPPGPPPALQQTMQAMLHFGGRLAQSLRGTSKEAASDPSDSPNLPTPGSWWEQLTQASRVYASGGTEGFPLSRWAPGRHGTAAEEGAQERPLPTDEMAPGRGLWLGRLFGVPGGPAENENGALKSRRPSSWLPPTVSVLALVKRGAPPEMPSPQELEASAPRMVQTHRAVRALCDHTAARPDQLSFRRGEVLRVITTVDEDWLRCGRDGMEGLVPVGYTSLVL
B2: Chorion-specific transcription factor GCMb (Homo sapiens), O75603 (parent)
chain: MPAAAVQEAVGVCSYGMQLSWDINDPQMPQELALFDQFREWPDGYVRFIYSSDEKKAQRHLSGWAMRNTNNHNGHILKKSCLGVVVCTQACTLPDGSRLQLRPAICDKARLKQQKKACPNCHSALELIPCRGHSGYPVTNFWRLDGNAIFFQAKGVHDHPRPESKSETEARRSAIKRQMASFYQPQKKRIRESEAEENQDSSGHFSNIPPLENPEDFDIVTETSFPIPGQPCPSFPKSDVYKATCDLATFQGDKMPPFQKYSSPRIYLPRPPCSYELANPGYTNSSPYPTLYKDSTSIPNDTDWVHLNTLQCNVNSYSSYERSFDFTNKQHGWKPALGKPSLVERTNHGQFQAMATRPYYNPELPCRYLTTPPPGAPALQTVITTTTKVSYQAYQPPAMKYSDSVREVKSLSSCNYAPEDTGMSVYPEPWGPPVTVTRAASPSGPPPMKIAGDCRAIRPTVAIPHEPVSSRTDEAETWDVCLSGLGSAVSYSDRVGPFFTYNNEDF
partner: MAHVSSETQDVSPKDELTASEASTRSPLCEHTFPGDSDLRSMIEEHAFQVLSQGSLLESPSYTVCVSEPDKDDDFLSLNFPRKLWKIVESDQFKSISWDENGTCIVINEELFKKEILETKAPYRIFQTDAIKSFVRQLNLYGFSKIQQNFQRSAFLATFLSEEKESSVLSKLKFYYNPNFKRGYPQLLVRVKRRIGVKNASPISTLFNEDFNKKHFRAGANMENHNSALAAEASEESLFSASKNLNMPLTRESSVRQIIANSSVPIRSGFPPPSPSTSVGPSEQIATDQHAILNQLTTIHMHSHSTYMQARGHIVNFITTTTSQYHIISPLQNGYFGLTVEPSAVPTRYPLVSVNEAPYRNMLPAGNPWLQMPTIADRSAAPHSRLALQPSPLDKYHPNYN
B3: Zinc finger protein Aiolos (Homo sapiens), Q9UKT9 (parent)
chain: MEDIQTNAELKSTQEQSVPAESAAVLNDYSLTKSHEMENVDSGEGPANEDEDIGDDSMKVKDEYSERDENVLKSEPMGNAEEPEIPYSYSREYNEYENIKLERHVVSFDSSRPTSGKMNCDVCGLSCISFNVLMVHKRSHTGERPFQCNQCGASFTQKGNLLRHIKLHTGEKPFKCHLCNYACQRRDALTGHLRTHSVEKPYKCEFCGRSYKQRSSLEEHKERCRTFLQSTDPGDTASAEARHIKAEMGSERALVLDRLASNVAKRKSSMPQKFIGEKRHCFDVNYNSSYMYEKESELIQTRMMDQAINNAISYLGAEALRPLVQTPPAPTSEMVPVISSMYPIALTRAEMSNGAPQELEKKSIHLPEKSVPSERGLSPNNSGHDSTDTDSNHEERQNHIYQQNHMVLSRARNGMPLLKEVPRSYELLKPPPICPRDSVKVINKEGEVMDVYRCDHCRVLFLDYVMFTIHMGCHGFRDPFECNMCGYRSHDRYEFSSHIARGEHRALLK
partner: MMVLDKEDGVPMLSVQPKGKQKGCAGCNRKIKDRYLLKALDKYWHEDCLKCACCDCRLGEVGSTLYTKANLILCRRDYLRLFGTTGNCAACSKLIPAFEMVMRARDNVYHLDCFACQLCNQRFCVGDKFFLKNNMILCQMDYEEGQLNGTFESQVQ
B4: Zinc finger and BTB domain-containing protein 9 (Homo sapiens), Q96C00 (parent)
chain: METPTPLPPVPASPTCNPAPRTIQIEFPQHSSSLLESLNRHRLEGKFCDVSLLVQGRELRAHKAVLAAASPYFHDKLLLGDAPRLTLPSVIEADAFEGLLQLIYSGRLRLPLDALPAHLLVASGLQMWQVVDQCSEILRELETSGGGISARGGNSYHALLSTTSSTGGWCIRSSPFQTPVQSSASTESPASTESPVGGEGSELGEVLQIQVEEEEEEEEDDDDEDQGSATLSQTPQPQRVSGVFPRPHGPHPLPMTATPRKLPEGESAPLELPAPPALPPKIFYIKQEPFEPKEEISGSGTQPGGAKEETKVFSGGDTEGNGELGFLLPSGPGPTSGGGGPSWKPVDLHGNEILSGGGGPGGAGQAVHGPVKLGGTPPADGKRFGCLCGKRFAVKPKRDRHIMLTFSLRPFGCGICNKRFKLKHHLTEHMKTHAGALHACPHCGRRFRVHACFLRHRDLCKGQGWATAHWTYK
partner: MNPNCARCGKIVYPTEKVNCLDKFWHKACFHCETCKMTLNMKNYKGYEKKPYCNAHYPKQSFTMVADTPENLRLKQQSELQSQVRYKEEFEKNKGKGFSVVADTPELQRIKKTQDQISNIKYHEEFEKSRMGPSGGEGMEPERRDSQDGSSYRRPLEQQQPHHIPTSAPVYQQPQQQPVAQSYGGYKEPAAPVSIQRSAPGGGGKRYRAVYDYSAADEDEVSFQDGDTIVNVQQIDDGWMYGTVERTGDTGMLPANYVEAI
B5: Dystrobrevin beta (Homo sapiens), O60941 (parent)
chain: MIEESGNKRKTMAEKRQLFIEMRAQNFDVIRLSTYRTACKLRFVQKRCNLHLVDIWNMIEAFRDNGLNTLDHTTEISVSRLETVISSIYYQLNKRLPSTHQISVEQSISLLLNFMIAAYDSEGRGKLTVFSVKAMLATMCGGKMLDKLRYVFSQMSDSNGLMIFSKFDQFLKEVLKLPTAVFEGPSFGYTEHSVRTCFPQQRKIMLNMFLDTMMADPPPQCLVWLPLMHRLAHVENVFHPVECSYCRCESMMGFRYRCQQCHNYQLCQNCFWRGHAGGPHSNQHQMKEHSSWKSPAKKLSHAISKSLGCVPTREPPHPVFPEQPEKPLDLAHIVPPRPLTNMNDTMVSHMSSGVPTPTKRLQYSQDIPSHLADEHALIASYVARLQHCARVLDSPSRLDEEHRLIARYAARLAAEAGNVTRPPTDLSFNFDANKQQRQLIAELENKNREILQEIQRLRLEHEQASQPTPEKAQQNPTLLAELRLLRQRKDELEQRMSALQESRRELMVQLEELMKLLKEEEQKQAAQATGSPHTSPTHGGGRPMPMPVRSTSAGSTPTHCPQDSLSGVGGDVQEAFAQGTRRNLRNDLLVAADSITNTMSSLVKELHSAEEGAEEEEEKMQNGKDRG
partner: B4 chain
B6: Cyclin-D1-binding protein 1 (Homo sapiens), O95273 (parent)
chain: MASATAPAAAVPTLASPLEQLRHLAEELRLLLPRVRVGEAQETTEEFNREMFWRRLNEAAVTVSREATTLTIVFSQLPLPSPQETQKFCEQVHAAIKAFIAVYYLLPKDQGITLRKLVRGATLDIVDGMAQLMEVLSVTPTQSPENNDLISYNSVWVACQQMPQIPRDNKAAALLMLTKNVDFVKDAHEEMEQAVEECDPYSGLLNDTEENNSDNHNHEDDVLGFPSNQDLYWSEDDQELIIPCLALVRASKACLKKIRMLVAENGKKDQVAQLDDIVDISDEISPSVDDLALSIYPPMCHLTVRINSAKLVSVLKKALEITKASHVTPQPEDSWIPLLINAIDHCMNRIKELTQSELEL
partner: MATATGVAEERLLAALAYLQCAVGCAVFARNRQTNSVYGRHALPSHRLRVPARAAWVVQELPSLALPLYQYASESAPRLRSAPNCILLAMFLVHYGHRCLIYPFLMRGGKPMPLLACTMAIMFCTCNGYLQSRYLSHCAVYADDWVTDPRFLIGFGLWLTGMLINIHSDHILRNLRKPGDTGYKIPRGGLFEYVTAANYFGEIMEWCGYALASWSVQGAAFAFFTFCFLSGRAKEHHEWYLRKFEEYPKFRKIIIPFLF

Variants of: B1
Conditions: with rbpms_human RBPMS

| effect of a mutation on the interaction | Variant |
| --- | --- |
| with no effect | A795T |
| with no effect | S614F |
| with no effect | G638S |

Variants of: B1
Conditions: with pnma1_human PNMA1, Q8ND90
pnma1_human PNMA1, Q8ND90, sequence (Q8ND90 whole entry): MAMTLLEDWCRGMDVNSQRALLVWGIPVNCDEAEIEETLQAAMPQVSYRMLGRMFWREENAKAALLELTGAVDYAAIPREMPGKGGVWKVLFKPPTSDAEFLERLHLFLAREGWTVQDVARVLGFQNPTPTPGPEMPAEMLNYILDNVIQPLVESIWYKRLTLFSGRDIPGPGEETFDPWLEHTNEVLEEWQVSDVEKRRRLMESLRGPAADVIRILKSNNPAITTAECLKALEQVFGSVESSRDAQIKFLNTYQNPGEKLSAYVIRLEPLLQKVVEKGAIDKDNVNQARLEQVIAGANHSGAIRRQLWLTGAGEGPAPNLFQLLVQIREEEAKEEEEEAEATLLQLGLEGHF

| Variant | effect of a mutation on the interaction |
| --- | --- |
| S614F | with no effect |
| D880Y | with no effect |

Now from value to variant:

| effect of a mutation on the interaction | Variant |
| --- | --- |
| with no effect | F665S |
| with no effect | V493A |
| with no effect | G638S |

Variants of: B1
Conditions: with fam9b_human FAM9B

| Variant | effect of a mutation on the interaction |
| --- | --- |
| S614F | disrupting interaction strength |
| D880Y | with no effect |

Second part, the variant after the results:

| effect of a mutation on the interaction | Variant |
| --- | --- |
| with no effect | F665S |
| with no effect | V493A |
| with no effect | G638S |

Variants of: B2
Conditions: with hsfy1_human HSFY1, Q96LI6

| effect of a mutation on the interaction | Variant |
| --- | --- |
| with no effect | MPAAAVQEAVGVCSYGMQLSWDINDPQMPQELALFDQFREWPDGYVRFIYSSNEKKAQRHLSGWAMRNTNNHNGHILKKSCLGVVVCTQACTLPDGSRLQLRPAICDKARLKQQKKACPNCHSALELIPCRGHSGYPVTNFWRLDGNAIFFQAKGVHDHPRPESKSETEARRSAIKRQMASFYQPQKKRIRESEAEENQDSSGHFSNIPPLENPEDFDIVTETSFPIPGQPCPSFPKSDVYKATCDLATFQGDKMPPFQKYSSPRIYLPRPPCSYELANPGYTNSSPYPTLYKDSTSIPNDTDWVHLNTLQCNVNSYSSYERSFDFTNKQHGWKPALGKPSLVERTNHGQFQAMATRPYYNPELPCRYLTTPPPGAPALQTVITTTTKVSYQAYQPPAMKYSDSVREVKSLSSCNYAPEDTGMSVYPEPWGPPVTVTRAASPSGPPPMKIAGDCRAIRPTVAIPHEPVSSRTDEAETWDVCLSGLGSAVSYSDRVGPFFTYNNEDF [D53N] |

Variants of: B3
Conditions: with rbtn1_human LMO1, P25800

| effect of a mutation on the interaction | Variant |
| --- | --- |
| with no effect | A24V |
| with no effect | N119D |

Variants of: B3
Conditions: with rbtn1_human LMO1, P25800
Remark: another data set of the same source

| effect of a mutation on the interaction | Variant |
| --- | --- |
| with no effect | I338M |

Variants of: B4
Conditions: with lasp1_human LASP1, Q14847

| effect of a mutation on the interaction | Variant |
| --- | --- |
| with no effect | METPTPLPPVPASPTCNPAPRTIQIEFPQHSSSLLESLNRHRLEGKFCDVSLLVQGRELRAHKAVLAAASPYFHDKLLLGDAPRLTLPSVIEADAFEGLLQLIYSGRLRLPLDALPAHLLVASGLQMWQVVDQCSEILRELETSGGGISARGGNSYHALLSTTSSTGGWCIRCSPFQTPVQSSASTESPASTESPVGGEGSELGEVLQIQVEEEEEEEEDDDDEDQGSATLSQTPQPQRVSGVFPRPHGPHPLPMTATPRKLPEGESAPLELPAPPALPPKIFYIKQEPFEPKEEISGSGTQPGGAKEETKVFSGGDTEGNGELGFLLPSGPGPTSGGGGPSWKPVDLHGNEILSGGGGPGGAGQAVHGPVKLGGTPPADGKRFGCLCGKRFAVKPKRDRHIMLTFSLRPFGCGICNKRFKLKHHLTEHMKTHAGALHACPHCGRRFRVHACFLRHRDLCKGQGWATAHWTYK [S173C] |

Variants of: B5
Conditions: with zbtb9_human ZBTB9, Q96C00

| effect of a mutation on the interaction | Variant |
| --- | --- |
| with no effect | R80H |

Variants of: B6
Conditions: with s5a1_human SRD5A1, P18405

| effect of a mutation on the interaction | Variant |
| --- | --- |
| disrupting interaction strength | MASATAPAAAVPTLASPLEQLRHLAEELRLLLPRVRVGEAQETTEEFNREMFWRRLNEAAVTVSREATTLTIVFSQLPLPSPQETQKFCEQVHAAIKAFIAVYYLLPKDQGITLRKLVRGATLDIVDGMAQLMEVLSVTPTQSPENNDLISYNSVWVACQQMPQIPRDNKAAALLMLTKNVDFVKDAHEEMEQAVEECDPYSGLLNDTEENNSDNHNHEDDVLGFPSNQDLYWSEDDQELIIPCLALVRASKACLKKIRMLVAENGKKDQVAQLDDTVDISDEISPSVDDLALSIYPPMCHLTVRINSAKLVSVLKKALEITKASHVTPQPEDSWIPLLINAIDHCMNRIKELTQSELEL [I277T] |

Source: IntAct's records for PubMed 31515488
